OD450 data for seven molecules are collected here from patent publication US20250250357A1 (NANJING ZAIMING PHARMACEUTICAL, published 2025).

The target in experiment [1] is T1, human MSLN-R1-his protein (human, UniProt Q13421 296-390).
T1 construct: also called hMSLN-R1-his; human MSLN-R1 protein; not shown: His tag
T1 chain: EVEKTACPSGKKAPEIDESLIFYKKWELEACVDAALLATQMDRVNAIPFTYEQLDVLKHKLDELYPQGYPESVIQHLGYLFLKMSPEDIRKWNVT
Briefly: ELISA, coated antigen; antibody 1 nM.

Experiment [2] deals with T1, human MSLN-R1-his protein. Description: ELISA, coated antigen; antibody 0.0001 nM. (In general: An ELISA detects its analyte on a solid surface through an enzyme-linked reagent.)
Method: (§1) The plate was sealed with a plastic film and incubated at 4° C. overnight. The next day, the plate was washed twice with PBST, and a blocking buffer [PBS+2% (w/w) BSA] was added for blocking at room temperature for 2 h. The blocking buffer was discarded, and a chimeric antibody or negative control antibody serially diluted from 100 nM was added at 50 μL/well. After incubation at 37° C. for 2 h, the plate was washed 3 times with PBST. […] After incubation at 37° C. for 2 h, the plate was washed 5 times with PBST. A TMB substrate was added at 50 μL/well for incubation at room temperature for 5-10 min, and then a stop solution (1.0 N HCl) was added at 50 μL/well.
For experiment [3], the target named is T2, human MSLN-FL-his protein (human, UniProt Q13421 296-580).
T2 construct: also called hMSLN-FL-his; human MSLN full-length protein; not shown: His tag
Briefly: ELISA, coated antigen; antibody 100 nM.

Experiment [4] has as its target T2, human MSLN-FL-his protein. Briefly: ELISA, coated antigen; antibody 0.1 nM.
Method: as §1
Experiment [5] concerns the target T2, human MSLN-FL-his protein. Description: ELISA, coated antigen; antibody 10 nM.
Method: as §1
The target of experiment [6] is T2, human MSLN-FL-his protein. Description: ELISA, coated antigen; antibody 1 nM.
Method: as §1
The target in experiment [7] is T1, human MSLN-R1-his protein. Briefly: ELISA, coated antigen; antibody 10 nM.
Method: as §1
Experiment [8] has as its target T2, human MSLN-FL-his protein. Description: ELISA, coated antigen; antibody 0.001 nM.
Method: as §1
Experiment [9] deals with T2, human MSLN-FL-his protein. Description: ELISA, coated antigen; antibody 0.01 nM.
Method: as §1
The target of experiment [10] is T1, human MSLN-R1-his protein. Description: ELISA, coated antigen; antibody 0.1 nM.
Method: as §1
The target of experiment [11] is T1, human MSLN-R1-his protein. Description: ELISA, coated antigen; antibody 100 nM.
Method: as §1
Experiment [12] deals with T2, human MSLN-FL-his protein. Briefly: ELISA, coated antigen; no antibody (blank, column 'none').
Method: as §1
In experiment [13] the target is T1, human MSLN-R1-his protein. Briefly: ELISA, coated antigen; antibody 0.01 nM.
Method: as §1
The target in experiment [14] is T1, human MSLN-R1-his protein. Description: ELISA, coated antigen; no antibody (blank, column 'none').
Method: as §1
The target in experiment [15] is T1, human MSLN-R1-his protein. Briefly: ELISA, coated antigen; antibody 0.001 nM.
Method: as §1
The target in experiment [16] is T2, human MSLN-FL-his protein. Description: ELISA, coated antigen; antibody 0.0001 nM.
Method: as §1

B1: S009-F1.35.24 human-murine chimeric antibody (antibody, human IgG1, kappa, V domains shown)
VH: EVQLQQSEPELVKPGASVRISCKASGYSFTDYYMHWVKQSPENRLEWIGEINPSTGGTSYNPKFKDKATLTVDKSSSTAYMQLKSLTSEESAVYYCTRYHYYGSSSYVMDYWGQGTSVTVSS
VL: QIVLTQSPAILSASPGERVTMTCSASSSVYHMHWFQQKSGTSPKRWVYDTSKLASGVPARFSGSGSGTSYSLTISSMEAEDAATYYCQHWRTNPLTFGAGTKLELKR
notes: Chimeric IgG1/kappa
As to B1, the OD450 in experiment [1] worked out at 0.04; in experiment [2] it was 0.04; in experiment [3] it was 2.48; in [4], 1.62; in experiment [5] it was 2.27; in experiment [6], 2.22. The OD450 in experiment [7] was 0.04; in experiment [8] it was 0.09; in experiment [9], 0.41; in experiment [10], 0.04; in [11] it was 0.06; in [12], 0.06. In addition, the OD450 in experiment [13] was 0.04; in experiment [14] it was 0.04; in experiment [15], 0.04; in experiment [16], 0.06.

B2: S009-F1.59.1 human-murine chimeric antibody (antibody, human IgG1, kappa, V domains shown)
VH: EVKLEGSGGGLVQPGGSMMLSCVATGFTFSSYWMNWVRQSPDRGLEWVAEIRLKSNGFAAFYAESVKGRFTISRDDSKSSVYLQMNNLRTEDTGIYYCTYFVHWGQGILVTVSE
VL: DIVLTQSPTSLAVSLGQRATISCRTSESVEYFGTILIQWYQQKPGQPPKLLIFGASNVESGVPARFSGSGSGTDFSLNIHPVEEEDIAMYFCQQNRKVPYTFGGGTTLELKR
notes: Chimeric IgG1/kappa
Consider B2, for which the OD450 in experiment [1] amounted to 0.03; in experiment [2], 0.03; in experiment [3] it was 2.65; in experiment [4] it was 1.76; in experiment [5], 2.38; in experiment [6] it was 2.31. Also, the OD450 in [7] turned out to be 0.04; in [8] it was 0.1; in experiment [9], 0.47; in experiment [10] it was 0.03; in experiment [11] it was 0.06; in experiment [12] it was 0.05. For the same molecule, the OD450 in [13] is 0.05; in [14], 0.05; in [15] it was 0.04; in [16], 0.06.

B3: S009-F1.56.1 human-murine chimeric antibody (antibody, human IgG1, kappa, V domains shown)
VH: EVQLQQSGAEVVKPGASVKLSCTASGFNIRHTYMHWVKQRPEQGLEWIGRIDPANGNTEYDPKFQGKATITADTSSNTAYLQLSSLTSEDTAVYYCARDGWYIDVWGAGTTVTVSS
VL: DIVMSQSPSSLAVSVGEKVTMSCKSSQSLLYSNNQKNYLAWYQQKPGQSPKLLIYWASTRESGVPDRFTGSGSGTDFTLTISSVKAEDLAVYYCQRYYSYPWTFGGGTKLEIKR
notes: Chimeric IgG1/kappa
B3: the OD450 in experiment [1] came out at 0.05; in experiment [2], 0.04; in [3] it was 2.74; in experiment [4] it was 1.83; in experiment [5] it was 2.44; in experiment [6] it was 2.3. In addition, the OD450 in [7] came to 0.06; in [8] it was 0.11; in experiment [9], 0.55; in experiment [10], 0.04; in experiment [11], 0.12; in experiment [12], 0.05. For the same molecule, the OD450 in experiment [13] was 0.03; in experiment [14] it was 0.05; in experiment [15], 0.05; in experiment [16], 0.05.

B4: S009-F1.57.1 human-murine chimeric antibody (antibody, human IgG1, kappa, V domains shown)
VH: EAQLQQSGAVFVKPGASVKLSCTASGFSSKDIFLHWVKQRPEQGLEWIGRIDPASDNTIYDPKFQDRATITSDRSSNTAYLQFSSLTSEDTAVYFCLYFDFWGQGTTLTVSS
VL: DIVMTQATPSISVTPGESVSISCRSSESLLHSNGNTYLYWFLQRPGQSPQLLIYRMSNLASGVPDRFSVSGSGTAFTLRISRVEAEDVGVYYCMQHLEYPLTFGAGTKLELKR
notes: Chimeric IgG1/kappa
With B4, the OD450 in experiment [1] was found to be 0.03; in experiment [2], 0.04; in experiment [3] it was 2.51; in experiment [4], 0.82; in experiment [5], 2.42; in experiment [6] it was 2.03. For the same molecule, the OD450 in experiment [7] is 0.04; in [8] it was 0.06; in experiment [9], 0.15; in experiment [10], 0.03; in experiment [11], 0.07; in experiment [12] it was 0.05. Moreover, the OD450 in experiment [13] came out at 0.05; in experiment [14], 0.05; in experiment [15] it was 0.04; in experiment [16] it was 0.05.

B5: S009-F1.7.14 human-murine chimeric antibody (antibody, human IgG1, kappa)
heavy: not shown
light: QIVLTQSPAIMSASPGEKVTISCSASSSVSYMYWYQQKPGSSPKPWISRTSNLASGVPARFSGSGSGTSYSLTISSMEAEDAATYYCQQYHSYPPTLGAGTKLELKRTVAAPSVFIFPPSDEQLKSGTASVVCLLNNFYPREAKVQWKVDNALQSGNSQESVTEQDSKDSTYSLSSTLTLSKADYEKHKVYACEVTHQGLSSPVTKSFNRGEC
notes: Chimeric IgG1/kappa
B5: the OD450 came out at 0.05 in experiment [1]; 0.05 in experiment [2]; 2.59 in experiment [3]; 0.3 in [4]; 2.05 in experiment [5]; 1.43 in experiment [6]. Besides, the OD450 came out at 0.07 in experiment [7]; 0.06 in [8]; 0.08 in experiment [9]; 0.05 in experiment [10]; 0.27 in experiment [11]; 0.06 in experiment [12]. The OD450 in experiment [13] turned out to be 0.04; in experiment [14], 0.05; in [15], 0.04; in experiment [16], 0.06.

B6: S009-F1.25.10 human-murine chimeric antibody (antibody, human IgG1, kappa, V domains shown)
VH: EVQLQQSGPELVKPGASLKISCKASGYSFTDYTMNWVKQSHGKNLEWIGLFNPYNGGISYNQKFKGKATLTVDKSSNTAYMELLSLTSDDSAVYFCARDGRGGFYAMDYWGQGTSVTVSS
VL: DIQMTQTTSSLSASLGDRVTISCRASQDISIYLNWYQQKPDGPVKLLIYYTSRLHSGVPSRFSGSGSGTDFSLTISNLEQEDIATYFCQQGYTLPPWTFGGGTKLEIKR
notes: Chimeric IgG1/kappa
Take B6: the OD450 in experiment [1] amounted to 0.03; in experiment [2], 0.04; in [3], 2.57; in [4] it was 1.67; in experiment [5] it was 2.44; in experiment [6], 2.3. The OD450 stood at 0.04 in [7]; 0.1 in experiment [8]; 0.43 in experiment [9]; 0.03 in [10]; 0.05 in [11]; 0.06 in experiment [12]. Further, the OD450 was found to be 0.04 in experiment [13], 0.05 in experiment [14], 0.05 in experiment [15] and 0.06 in [16].

B7: S009-F1.2.12 human-murine chimeric antibody (antibody, human IgG1, kappa, V domains shown)
VH: QVQLKQTGPGLVQPSQSLSITCTVSGFSLTNYAVHWVRQSPGKGLEWLGVIWSGGATDYNTVFISRLSISKDNSKSQVFFKVNSLQVDDTAIYYCARTGSGYAMDYWGQGTSVTVSS
VL: DIVLTQSPATLSVTPGDRVSLSCRTSHNVNTYLHWYQQKSHESPRLLIKYASQSISEIPSRFSGSGSGTNFTLSINSVETEDFGMYFCHQTNRWPLTFGAGTKLELKR
notes: Chimeric IgG1/kappa
For B7, the OD450 in experiment [1] was found to be 0.04; in [2], 0.04; in [3], 2.74; in [4], 1.75; in [5], 2.31; in experiment [6] it was 2.27. For the same molecule, the OD450 in [7] is 0.05; in experiment [8] it was 0.11; in experiment [9], 0.49; in [10] it was 0.05; in [11], 0.05; in experiment [12], 0.06. The OD450 was 0.04 in experiment [13], 0.04 in [14], 0.05 in experiment [15] and 0.06 in experiment [16].
